Patent US20030186841A1

Columns and labels:
Assay in all cases: cell-based or functional assay
Cf2-PBD-VP64 (human) = Cf2-PBD-VP64 (human) (UniProt P06401)
ER-KRAB (mouse; human) = ER-KRAB (mouse; human) (UniProt P19785)
ER-VP64 (mouse) = ER-VP64 (mouse) (UniProt P19785)

Sequence of ER-KRAB (mouse; human) (P19785 other isoform, or with tags, fused parts or gaps): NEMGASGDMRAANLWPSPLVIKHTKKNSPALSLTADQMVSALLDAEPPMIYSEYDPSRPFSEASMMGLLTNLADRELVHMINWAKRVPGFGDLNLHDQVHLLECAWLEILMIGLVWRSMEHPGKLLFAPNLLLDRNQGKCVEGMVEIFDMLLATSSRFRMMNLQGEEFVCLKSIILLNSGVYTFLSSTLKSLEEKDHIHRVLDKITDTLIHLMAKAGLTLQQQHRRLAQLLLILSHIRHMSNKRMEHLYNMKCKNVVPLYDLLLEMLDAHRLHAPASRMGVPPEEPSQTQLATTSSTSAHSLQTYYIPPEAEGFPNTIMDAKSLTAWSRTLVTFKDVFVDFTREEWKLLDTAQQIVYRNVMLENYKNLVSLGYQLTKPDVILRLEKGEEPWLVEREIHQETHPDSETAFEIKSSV
Sequence of C7-PBD-VP64 (P06401 640-914): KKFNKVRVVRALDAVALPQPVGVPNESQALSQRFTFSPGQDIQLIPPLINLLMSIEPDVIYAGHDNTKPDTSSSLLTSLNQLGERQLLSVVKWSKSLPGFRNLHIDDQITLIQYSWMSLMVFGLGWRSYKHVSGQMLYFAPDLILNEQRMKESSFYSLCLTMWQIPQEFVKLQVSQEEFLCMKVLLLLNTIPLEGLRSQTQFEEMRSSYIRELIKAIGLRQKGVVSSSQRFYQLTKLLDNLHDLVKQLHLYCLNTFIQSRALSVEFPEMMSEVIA
Sequence of Cf2-PBD-VP64 (human) (P06401 640-914): as above

With “C7-PBD-VP64 (from UniProt P06401 640-914)” the luciferase assay, C7-Cf2 TATA reporter, ligand-dependent change in transcription (Cf2-PBD-VP64 (human)) was 2 fold.

E2C-ER (from UniProt P19785 282-599) showed a luciferase assay, tamoxifen-dependent repression of the erbB-2 promoter (ER-KRAB (mouse; human)) of 2.9 fold, a luciferase assay, erbB-2 promoter activity in HeLa cells, with and without Tamoxifen (ER-VP64 (mouse)) of 3 fold and a luciferase assay, tamoxifen-dependent activation of the erbB-2 promoter (ER-VP64 (mouse)) of 5.3 fold.
